Data as given in paper PMC12857291.

Columns and labels:
[1] = target: MeCP2-MBD domain wild-type, C-terminal 6xHis-tagged (UniProt P51608); assay: ITC; MicroCal PEAQ-ITC, 15 °C, 750 rpm; peptide (1.5 to 2 mM) in the syringe injected into protein (80 to 100 μM) in the cell; 50 mM HEPES pH 7.5, 200 mM NaCl, 5% glycerol; single-binding site model
[2] = target: MeCP2-MBD aromatic cage mutants, W104, F132, Y141, F142 and F155 to alanine (group as printed for the range of KD limits); assay: as above

Sequence of MeCP2-MBD domain wild-type, C-terminal 6xHis-tagged (P51608 90-162): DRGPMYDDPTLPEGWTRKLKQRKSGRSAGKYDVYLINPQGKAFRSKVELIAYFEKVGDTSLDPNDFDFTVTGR

- Kd [1]: 5.2 µM
- Kd [2]: > 1000 µM
Substance: histone H3(15-36)K27me3 peptide (from UniProt P68431 16-37)
